Numbering of substitutions follows the chain as printed. In names and notes the source's numbering stands.

13 molecules from patent US20140356358A1 (Amgen, published 2014) can be followed below.

The target in assay [1] is T1, human neonatal Fc receptor (hFcRn) (human, UniProt P55899 24-290; P61769 21-119).
T1 construct: Biotinylated in the ELISA, Octet and yeast assays; also called human FcRn; huFcRn
The assay can be described thus: BLI (Octet), association pH 6, dissociation pH 7.4. The text has this:
To further characterize some of the variant Fc-fragments identified by the phage ELISA, binding of the variant Fc-fragments to FcRn at pH 6 and 7.4 was characterized for a subset of the identified variant Fc-fragments. DNA encoding selected variant Fc-fragment isolates, all from library L5, was introduced into a mammalian expression vector, which was used to transfect 293 6E cells using deacylated PEI essentially as described by Thomas et al. (Proc. Natl. Acad. Sci. 102(16): 5679-5684, 2005), the relevant portions of which are incorporated herein by reference. […] Concentrations were calculated using a standard curve created with a purified Fc fusion protein.
Biotinylated hFcRn at 100 nM was captured on streptavidin (SA) biosensors (ForteBio Inc., 18-5019) off-line at RT for 2 hours. Using these biotinylated hFcRn-coated SA biosensors in the Octet Red® system, association and dissociation of unlabeled proteins can be detected in real time via […] of light. […] Three association and dissociation conditions were set up: (1) association at pH 6 and dissociation at pH 6; (2) association at pH 6 and dissociation at pH 7.4; and (3) association at pH 7.4 and dissociation at pH 7.4. SA biosensors coated with biotinylated hFcRN were dipped into buffer at a specific pH for 1 min and then soaked in the samples containing variant Fc-fragments or controls at a specific pH for 5 min to allow binding to FcRn. The Fc biosensors were then soaked in buffer at a specific pH for 5 minutes more to allow the bound Fc-fragments to dissociate from FcRn. Detection of binding and dissociation of the Fc-fragments was possible through the use of bio-layer interferometry as implemented using the Octet Red® system, so that binding and dissociation were detected in real time.

Assay [2] has as its target T1, human neonatal Fc receptor (hFcRn). The assay can be described thus: SPR competition pH 5.5.
Assay [3] deals with T2, cynomolgus monkey FcRn (cynomolgus monkey, UniProt Q8SPV9 24-297; Q8SPW0 21-119, limits assumed).
T2 construct: also called Cynomolgus FcRn
T2 sequence (Q8SPV9 24-297 limits assumed, chain 1 of 2): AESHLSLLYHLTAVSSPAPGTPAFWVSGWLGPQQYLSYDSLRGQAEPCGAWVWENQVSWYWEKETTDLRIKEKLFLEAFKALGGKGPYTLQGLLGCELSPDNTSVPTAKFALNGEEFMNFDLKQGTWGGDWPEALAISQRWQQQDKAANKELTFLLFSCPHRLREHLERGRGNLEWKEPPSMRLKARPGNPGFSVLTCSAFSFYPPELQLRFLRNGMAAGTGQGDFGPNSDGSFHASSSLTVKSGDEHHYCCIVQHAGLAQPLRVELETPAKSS
T2 sequence (Q8SPW0 21-119 limits assumed, chain 2 of 2): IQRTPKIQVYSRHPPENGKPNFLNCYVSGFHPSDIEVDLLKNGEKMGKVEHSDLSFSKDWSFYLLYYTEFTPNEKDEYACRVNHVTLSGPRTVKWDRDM
The assay can be described thus: SPR competition pH 5.5.

Assay [4] concerns the target T1, human neonatal Fc receptor (hFcRn). The assay can be described thus: SPR competition pH 7.4. As to the method: (§1) Binding of variant Fc-fragments to human and cynomolgus monkey FcRn was tested using a BIAcore® T100 analysis system (GE Healthcare Bio-Sciences AB Private Limited Liability Company, Uppsala, Sweden) at both pH 5.5 and pH 7.4. The test consisted of incubating various concentrations of the variant Fc-fragments or control Fc-fragments with a fixed amount of human or cynomolgus monkey FcRn under binding conditions and subsequently measuring the amount of free, unbound FcRn in these mixtures by binding to a surface (in a flow cell of a CM5 (Biacore) chip) on which an Fc-fragment was immobilized. […] Thus, the amount of unbound FcRn in the mixture was quantitatively ascertained by surface plasmon resonance through use of the BIAcore® T100 analysis system. […] Initially, a group of 23 variant-Fc-fragments (Fc-5-1 being considered a control) identified in the experiments described above were tested for binding to human FcRn.
(§2) As positive controls, 10 mM human and cynomolgus monkey FcRn were each incubated in the same solution, for the same time, and at the same temperature described immediately above, but without an added Fc-fragment.

In assay [5] the target is T2, cynomolgus monkey FcRn. The assay can be described thus: SPR competition pH 7.4. As to the method:
as §1, §2

The target of assay [6] is T1, human neonatal Fc receptor (hFcRn). The assay can be described thus: SPR competition pH 5.5. This is another data set of the same source.
For assay [7], the target named is T2, cynomolgus monkey FcRn. The assay can be described thus: SPR competition pH 5.5. This is another data set of the same source.
Assay [8] has as its target T2, cynomolgus monkey FcRn. The assay can be described thus: SPR competition pH 7.4. This is another data set of the same source.
Assay [9] has as its target T1, human neonatal Fc receptor (hFcRn). The assay can be described thus: SPR competition pH 7.4. This is another data set of the same source.

T1 sequence (P55899 24-290 limits assumed, chain 1 of 2): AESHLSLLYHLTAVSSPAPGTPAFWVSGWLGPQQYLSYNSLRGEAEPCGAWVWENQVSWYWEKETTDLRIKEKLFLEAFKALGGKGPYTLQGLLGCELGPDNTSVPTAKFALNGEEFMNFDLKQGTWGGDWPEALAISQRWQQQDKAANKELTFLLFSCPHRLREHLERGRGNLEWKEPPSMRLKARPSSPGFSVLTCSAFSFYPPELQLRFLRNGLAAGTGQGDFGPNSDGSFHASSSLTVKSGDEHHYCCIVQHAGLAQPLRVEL
T1 sequence (P61769 21-119 limits assumed, chain 2 of 2): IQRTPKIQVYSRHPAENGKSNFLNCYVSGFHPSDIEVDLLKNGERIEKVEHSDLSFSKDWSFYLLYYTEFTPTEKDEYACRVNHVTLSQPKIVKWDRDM

B1: variant Fc-fragment 5-1-9 (other)
chain: EPKSCDKTHTCPPCPAPELLGGPSVFLFPPKPKDTLMISRTPEVTCVVVDVSHEDPEVKFNWYVDGVEVHNAKTKPREEQYNSTYRVVSVLTVLHQDWLNGKEYKCKVSNKALPAPIEKTISKAKGQPREPQVYTLPPSRDELTKNQVSLTCLVKGFYPSDIAVEWESGGCGMPIEFCGGPENNYKTTPPVLDSDGSFFLYSKLTVDKSRWQQGNVFSCSVMHEALHNHYTQKSLSLSPGK
For the molecule B1, the binding result in assay [1] is “binds”.

B2: variant Fc-fragment 5-1-1 (other)
chain: EPKSCDKTHTCPPCPAPELLGGPSVFLFPPKPKDTLMISRTPEVTCVVVDVSHEDPEVKFNWYVDGVEVHNAKTKPREEQYNSTYRVVSVLTVLHQDWLNGKEYKCKVSNKALPAPIEKTISKAKGQPREPQVYTLPPSRDELTKNQVSLTCLVKGFYPSDIAVEWEGGCGMPIEFCGGSNGQPENNYKTTPPVLDSDGSFFLYSKLTVDKSRWQQGNVFSCSVMHEALHNHYTQKSLSLSPGK
On to B2, for which the binding result in assay [1] is reported as “binds”.

B3: variant Fc-fragment 5-1-7 (other)
chain: EPKSCDKTHTCPPCPAPELLGGPSVFLFPPKPKDTLMISRTPEVTCVVVDVSHEDPEVKFNWYVDGVEVHNAKTKPREEQYNSTYRVVSVLTVLHQDWLNGKEYKCKVSNKALPAPIEKTISKAKGQPREPQVYTLPPSRDELTKNQVSLTCLVKGFYPSDIAVEWESNGQPENGGCGMPIEFCGGNYKTTPPVLDSDGSFFLYSKLTVDKSRWQQGNVFSCSVMHEALHNHYTQKSLSLSPGK
B3: the binding result in [1] is “binds”.

B4: variant Fc-fragment Fc-5-1 (other)
chain: EPKSCDKTHTCPPCPAPELLGGPSVFLFPPKPKDTLMISRTPEVTCVVVDVSHEDPEVKFNWYVDGVEVHNAKTKPREEQYNSTYRVVSVLTVLHQDWLNGKEYKCKVSNKALPAPIEKTISKAKGQPREPQVYTLPPSRDELTKNQVSLTCLVKGFYPSDIAVEWESNGGCGMPIEFCGGGQPENNYKTTPPVLDSDGSFFLYSKLTVDKSRWQQGNVFSCSVMHEALHNHYTQKSLSLSPGK
notes: library L5 isolate; also called variant 5-1
For B4, the EC50 (in general, the concentration that produces a half-maximal response) in assay [2] worked out at 2.6 nM; with cynomolgus monkey FcRn [3] it was 2.3 nM; in assay [4], 45 nM; with cynomolgus monkey FcRn [5], 42 nM.

B5: variant Fc-fragment Fc-5-106-M4I (other)
chain: B4 chain with G173V, M174F, P175N, E177F, F178N
On to B5, for which the EC50 came to 2.6 nM in assay [6], 3.2 nM with cynomolgus monkey FcRn [7] and 970 nM in the assay with cynomolgus monkey FcRn [8].

B6: variant Fc-fragment Fc-5-106-M4L (other)
chain: B4 chain with G173V, M174F, P175N, I176L, E177F, F178N
B6: the EC50 turned out to be 2.3 nM in assay [6], 2.8 nM with cynomolgus monkey FcRn [7], 650 nM in [9] and 710 nM in the assay with cynomolgus monkey FcRn [8].

B7: variant Fc-fragment Fc-5-106-M4V (other)
chain: B4 chain with G173V, M174F, P175N, I176V, E177F, F178N
For the molecule B7, the EC50 in assay [6] was 6.2 nM; with cynomolgus monkey FcRn [7], 5 nM.

B8: variant Fc-fragment Fc-5-106 (other)
chain: B4 chain with G173V, M174F, P175N, I176M, E177F, F178N
notes: soluble elsewhere
As for B8, the EC50 came to 5.3 nM in assay [2], 3.6 nM with cynomolgus monkey FcRn [3], 5.4 nM in [6] and 4.6 nM with cynomolgus monkey FcRn [7].

B9: variant Fc-fragment Fc-5-106-M4T (other)
chain: B4 chain with G173V, M174F, P175N, I176T, E177F, F178N
B9: the EC50 turned out to be 10 nM in assay [6] and 8.3 nM with cynomolgus monkey FcRn [7].

B10: variant Fc-fragment 5-1-6 (other)
chain: EPKSCDKTHTCPPCPAPELLGGPSVFLFPPKPKDTLMISRTPEVTCVVVDVSHEDPEVKFNWYVDGVEVHNAKTKPREEQYNSTYRVVSVLTVLHQDWLNGKEYKCKVSNKALPAPIEKTISKAKGQPREPQVYTLPPSRDELTKNQVSLTCLVKGFYPSDIAVEWESNGQPEGGCGMPIEFCGGNNYKTTPPVLDSDGSFFLYSKLTVDKSRWQQGNVFSCSVMHEALHNHYTQKSLSLSPGK
For the molecule B10, in [1], the binding result is reported as “binds”.

B11: variant Fc-fragment 5-1-5 (other)
chain: EPKSCDKTHTCPPCPAPELLGGPSVFLFPPKPKDTLMISRTPEVTCVVVDVSHEDPEVKFNWYVDGVEVHNAKTKPREEQYNSTYRVVSVLTVLHQDWLNGKEYKCKVSNKALPAPIEKTISKAKGQPREPQVYTLPPSRDELTKNQVSLTCLVKGFYPSDIAVEWESNGQPGGCGMPIEFCGGENNYKTTPPVLDSDGSFFLYSKLTVDKSRWQQGNVFSCSVMHEALHNHYTQKSLSLSPGK
For the molecule B11, the binding result in assay [1] was “binds”.

B12: variant Fc-fragment 5-1-8 (other)
chain: EPKSCDKTHTCPPCPAPELLGGPSVFLFPPKPKDTLMISRTPEVTCVVVDVSHEDPEVKFNWYVDGVEVHNAKTKPREEQYNSTYRVVSVLTVLHQDWLNGKEYKCKVSNKALPAPIEKTISKAKGQPREPQVYTLPPSRDELTKNQVSLTCLVKGFYPSDIAVEWESNGQPENNGGCGMPIEFCGGYKTTPPVLDSDGSFFLYSKLTVDKSRWQQGNVFSCSVMHEALHNHYTQKSLSLSPGK
In the case of B12, the binding result in assay [1] is reported as “binds”.

B13: variant Fc-fragment 5-1-10 (other)
chain: EPKSCDKTHTCPPCPAPELLGGPSVFLFPPKPKDTLMISRTPEVTCVVVDVSHEDPEVKFNWYVDGVEVHNAKTKPREEQYNSTYRVVSVLTVLHQDWLNGKEYKCKVSNKALPAPIEKTISKAKGQPREPQVYTLPPSRDELTKNQVSLTCLVKGFYPSDIAVEWESGGGCGMPIEFCGGGPENNYKTTPPVLDSDGSFFLYSKLTVDKSRWQQGNVFSCSVMHEALHNHYTQKSLSLSPGK
As to B13, in assay [1], the binding result is given as “binds”.
